# Results taken from the supplement of paper PMC7877785.
# ± gives the uncertainty stated by the source.
# Assay: self-splicing fitness, log relative to wild type (ln ratio); higher = more splicing; Tetrahymena group I intron in knt gene, E. coli kanamycin selection, DiMSum; sequences stand for … in CUCUCU…GGAGGGAAAAGUUAUCAGGCAUGCACCUGGUAGCUAGUCUUUAAACCAAUAGAUUGCAUCGGUUUAAAAGGCAAGACCGUCAAAUUGCGGGAAAGGGGUCAACAGCCGUUCAGUACCAAGUCUCAGGGGAAACUUUGAGAUGGCCUUGCAAAGGGUAUGGUAAUAAGCUGACGGACAUGGUCCUAACCACGCAGCCAAGUCCUAAGUCAACAGAUCUUCUGUUGAUAUGGAUGCAGUUCACAGACUAAAUGUCGGUCGGGGAAGAUGUAUUCUUCUCAUAAGAUAUAGUCGGACCUCUCCUUAAUGGGAGCUAGCGGAUGAAGUGAUGCAACACUGGAGCCGCUGGGAACUAAUUUGUAUGCGAAAGUAUAUUGAUUAGUUUUGGAGUACUCGUGGUCG
# Summary of the method: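 Pooled colonies went to amplicon sequencing on an Illumina HiSeq 2500 after six replicate transformations. The plates were LB agar with 100 μg/mL carbenicillin, 50 μM IPTG and 0.2% rhamnose, with or without 25 μg/mL kanamycin, incubated overnight at 37°C or 30°C. The E. coli BL21(DE3) library had all eight P1ex-region intron nucleotides randomised, the intron placed in the knt kanamycin-resistance gene on pET-22b(+). DiMSum fitness is the error-weighted combination of replicate fold changes, kanamycin against none, normalised to wild type.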
Sequence,self-splicing fitness (ln) (30 °C),self-splicing fitness (ln) (37 °C)
AACCAGCAAUAUUACGCUCC,-0.493 ± 0.094,-0.0692 ± 0.12
AACCAGCAAUAUUACGGAAC,-2.13 ± 0.091,-1.04 ± 0.088
AACCAGCAAUAUUACGGACG,0.131 ± 0.059,-0.143 ± 0.07
AACCAGCAAUAUUACGGAUA,-0.931 ± 0.069,-0.176 ± 0.074
AACCAGCAAUAUUACGGAUG,-0.77 ± 0.058,-0.508 ± 0.072
AACCAGCAAUAUUACGGCGA,-0.304 ± 0.075,0.19 ± 0.11
AACCAGCAAUAUUACGGGCG,-0.173 ± 0.068,0.356 ± 0.081
AACCAGCAAUAUUACGGGGA,-2.46 ± 0.097,-1.09 ± 0.089
AACCAGCAAUAUUACGGGUG,-1.14 ± 0.046,-0.409 ± 0.064
AACCAGCAAUAUUACGGUCU,-0.594 ± 0.048,-0.249 ± 0.066
AACCAGCAAUAUUACGUAAG,-1.28 ± 0.059,-0.259 ± 0.072
AACCAGCAAUAUUACGUAUG,-2 ± 0.076,-0.882 ± 0.072
AACCAGCAAUAUUACGUCCA,-0.505 ± 0.061,-0.595 ± 0.068
AACCAGCAAUAUUACGUUUA,-1.01 ± 0.062,-0.649 ± 0.074
AACCAGCAAUAUUACGUUUC,-4.08 ± 0.17,-2.92 ± 0.21
AACGAGCAAUAUUACGAAAC,,-2.37 ± 0.22
AACGAGCAAUAUUACGAAGC,-3.92 ± 0.42,-1.91 ± 0.37
AACGAGCAAUAUUACGAGUC,,-2.63 ± 0.44
AACGAGCAAUAUUACGAUCU,-0.758 ± 0.088,-0.0761 ± 0.1
AACGAGCAAUAUUACGCAGC,-2.29 ± 0.29,
AACGAGCAAUAUUACGCAGU,-2.87 ± 0.23,-2.52 ± 0.29
AACGAGCAAUAUUACGCGCC,-2.77 ± 0.3,-2.61 ± 0.48
AACGAGCAAUAUUACGCUAG,-3.61 ± 0.25,-2.92 ± 0.43
AACGAGCAAUAUUACGCUUA,-2.86 ± 0.26,-1.31 ± 0.2
AACGAGCAAUAUUACGGCGC,-2.14 ± 0.18,-1.31 ± 0.16
AACGAGCAAUAUUACGGCUC,-2.49 ± 0.44,

Sequence,self-splicing fitness (ln) (30 °C),self-splicing fitness (ln) (37 °C)
AACGAGCAAUAUUACGGGGC,-4.03 ± 0.27,-3.46 ± 0.35
AACGAGCAAUAUUACGGUCA,-2.05 ± 0.21,-1.12 ± 0.2
AACGAGCAAUAUUACGGUUA,-1.84 ± 0.18,-0.413 ± 0.15
AACGAGCAAUAUUACGGUUU,-2.07 ± 0.079,-0.83 ± 0.089
AACGAGCAAUAUUACGUAUU,-3.1 ± 0.16,-1.85 ± 0.14
AACGAGCAAUAUUACGUCCG,,-2.07 ± 0.29
AACGAGCAAUAUUACGUCGA,,-2.06 ± 0.21
AACGAGCAAUAUUACGUGAA,-3.48 ± 0.19,-3.65 ± 0.24
AACGAGCAAUAUUACGUUGC,-4.01 ± 0.18,-3.16 ± 0.19
AACGAGCAAUAUUACGUUUC,-3.05 ± 0.19,-2.42 ± 0.19
AACUAGCAAUAUUACGAAGC,-2.35 ± 0.4,-0.29 ± 0.35
AACUAGCAAUAUUACGAAGU,-3.67 ± 0.3,-2 ± 0.13
AACUAGCAAUAUUACGAGAC,-1.96 ± 0.44,
AACUAGCAAUAUUACGAGAG,-3.61 ± 0.12,-1.84 ± 0.11
AACUAGCAAUAUUACGAGCG,-0.883 ± 0.089,-0.592 ± 0.098
AACUAGCAAUAUUACGCAAA,-2.38 ± 0.13,-1.72 ± 0.1
AACUAGCAAUAUUACGCAAU,-2.35 ± 0.13,-2.15 ± 0.16
AACUAGCAAUAUUACGCACA,-0.559 ± 0.061,0.145 ± 0.077
AACUAGCAAUAUUACGCUAA,-2.06 ± 0.11,-1.51 ± 0.12
AACUAGCAAUAUUACGCUGU,-3.41 ± 0.16,-3.84 ± 0.32
AACUAGCAAUAUUACGGAAC,-2.99 ± 0.21,-2.08 ± 0.3
AACUAGCAAUAUUACGGACU,-1.36 ± 0.24,0.037 ± 0.28
AACUAGCAAUAUUACGGCAG,-1.09 ± 0.094,-0.755 ± 0.095
AACUAGCAAUAUUACGGCCC,-1.6 ± 0.17,-0.325 ± 0.24
AACUAGCAAUAUUACGGGCU,-1.29 ± 0.11,-1.19 ± 0.16
AACUAGCAAUAUUACGGUAU,-1.31 ± 0.072,-0.479 ± 0.092

Sequence,self-splicing fitness (ln) (30 °C),self-splicing fitness (ln) (37 °C)
AACUAGCAAUAUUACGGUUA,-0.722 ± 0.084,-0.482 ± 0.083
AACUAGCAAUAUUACGUACC,-1.14 ± 0.1,-0.0487 ± 0.14
AACUAGCAAUAUUACGUAUG,-3.11 ± 0.11,-1.22 ± 0.11
AACUAGCAAUAUUACGUGCA,-0.72 ± 0.054,-0.578 ± 0.065
AACUAGCAAUAUUACGUGGA,-2.28 ± 0.11,-1.61 ± 0.1
AACUAGCAAUAUUACGUUAU,-2.63 ± 0.11,-1.75 ± 0.12
AACUAGCAAUAUUACGUUGA,-1.52 ± 0.11,-1.04 ± 0.12
AAGAAGCAAUAUUACGAAAC,-1.82 ± 0.17,-0.859 ± 0.15
AAGAAGCAAUAUUACGAAAG,-3.5 ± 0.21,-1.69 ± 0.13
AAGAAGCAAUAUUACGACGU,-0.168 ± 0.068,0.298 ± 0.1
AAGAAGCAAUAUUACGAGAG,-4.49 ± 0.36,-2.41 ± 0.2
AAGAAGCAAUAUUACGAGUG,-2.04 ± 0.12,-1.23 ± 0.13
AAGAAGCAAUAUUACGAUGA,-0.962 ± 0.096,-0.249 ± 0.09
AAGAAGCAAUAUUACGAUUA,-0.809 ± 0.11,0.095 ± 0.11
AAGAAGCAAUAUUACGCACU,-0.114 ± 0.063,-0.103 ± 0.081
AAGAAGCAAUAUUACGCCAA,-2.24 ± 0.25,-1.04 ± 0.21
AAGAAGCAAUAUUACGCCCC,-0.875 ± 0.12,-0.358 ± 0.17
AAGAAGCAAUAUUACGCCUU,-3.53 ± 0.4,-2.17 ± 0.33
AAGAAGCAAUAUUACGCUAG,-2.36 ± 0.14,-0.458 ± 0.13
AAGAAGCAAUAUUACGCUCU,-3.54 ± 0.24,-1.37 ± 0.18
AAGAAGCAAUAUUACGCUGA,-2.47 ± 0.14,-2.04 ± 0.18
AAGAAGCAAUAUUACGGAGA,-3.38 ± 0.19,-2.62 ± 0.2
AAGAAGCAAUAUUACGGCAC,-0.764 ± 0.08,-0.298 ± 0.12
AAGAAGCAAUAUUACGGCAU,0.143 ± 0.12,-0.43 ± 0.16
AAGAAGCAAUAUUACGGCCC,-0.651 ± 0.13,-0.518 ± 0.16
AAGAAGCAAUAUUACGGGAA,-1.79 ± 0.14,-1.85 ± 0.13
